# Measured values from IntAct's records for PubMed 19644450.
# B1: Isoform 2 of C-Jun-amino-terminal kinase-interacting protein 4 (Homo sapiens), O60271-2 (parent)
# chain: MELEDGVVYQEEPGGSGAVMSERVSGLAGSIYREFERLIGRYDEEVVKELMPLVVAVLENLDSVFAQDQEHQVELELLRDDNEQLITQYEREKALRKHAEEKFIEFEDSQEQEKKDLQTRVESLESQTRQLELKAKNYADQISRLEEREAELKKEYNALHQRHTEMIHNYMEHLERTKLHQLSGSDQLESTAHSRIRKERPISLGIFPLPAGDGLLTPDAQKGGETPGSEQWKFQELSQPRSHTSLKDELSDVSQGGSKATTPASTANSDVATIPTDTPLKEENEGFVKVTDAPNKSEISKHIEVQVAQETRNVSTGSAENEEKSEVQAIIESTPELDMDKDLSGYKGSSTPTKGIENKAFDRNTESLFEELSSAGSGLIGDVDEGADLLGMGREVENLILENTQLLETKNALNIVKNDLIAKVDELTCEKDVLQGELEAVKQAKLKLEEKNRELEEELRKARAEAEDARQKAKDDDDSDIPTAQRKRFTRVEMARVLMERNQYKERLMELQEAVRWTEMIRASRENPAMQEKKRSSIWQFVPTRFSRLFSSSSNTTKKPEPPVNLKYNAPTSHVTPSVKKRSSTLSQLPGDKSKAFDFLSEETEASLASRREQKREQYRQVKAHVQKEDGRVQAFGWSLPQKYKQVTNGQGENKMKNLPVPVYLRPLDEKDTSMKLWCAVGVNLSGGKTRDGGSVVGASVFYKDVAGLDTEGSKQRSASQSSLDKLDQELKEQQKELKNQEELSSLVWICTSTHSATKVLIIDAVQPGNILDSFTVCNSHVLCIASVPGARETDYPAGEDLSESGQVDKASLCGSMTSNSSAETDSLLGGITVVGCSAEGVTGAATSPSTNGASPVMDKPPEMEAENSEVDENVPTAEEATEATEGNAGSAEDTVDISQTGVYTEHVFTDPLGVQIPEDLSPVYQSSNDSDAYKDQISVLPNEQDLVREEAQKMSSLLPTMWLGAQNGCLYVHSSVAQWRKCLHSIKLKDSILSIVHVKGIVLVALADGTLAIFHRGVDGQWDLSNYHLLDLGRPHHSIRCMTVVHDKVWCGYRNKIYVVQPKAMKIEKSFDAHPRKESQVRQLAWVGDGVWVSIRLDSTLRLYHAHTYQHLQDVDIEPYVSKMLGTGKLGFSFVRITALMVSCNRLWVGTGNGVIISIPLTETNKTSGVPGNRPGSVIRVYGDENSDKVTPGTFIPYCSMAHAQLCFHGHRDAVKFFVAVPGQVISPQSSSSGTDLTGDKAGPSAQEPGSQTPLKSMLVISGGEGYIDFRMGDEGGESELLGEDLPLEPSVTKAERSHLIVWQVMYGNE
# Variants of: B1
# Conditions: with arf6_human ARF6, P62330
# Chain of arf6_human ARF6, P62330 (P62330 whole entry): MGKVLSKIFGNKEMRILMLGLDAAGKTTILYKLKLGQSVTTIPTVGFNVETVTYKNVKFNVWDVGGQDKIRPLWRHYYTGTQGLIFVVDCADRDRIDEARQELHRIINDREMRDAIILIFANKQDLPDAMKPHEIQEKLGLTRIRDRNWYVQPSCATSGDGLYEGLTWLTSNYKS
row,Variant,effect of a mutation on the interaction
1,D425A,decreasing interaction

# Variants of: B1
# Conditions: with arf6_human ARF6, P62330
# Remark: another data set of the same source
row,Variant,effect of a mutation on the interaction
1,I421A,decreasing interaction
